From paper PMC9250652, “Functional analysis of the dihydroflavonol 4-reductase family of Camellia sinensis: exploiting key amino acids to reconstruct reduction activity” (Horticulture Research, 2022)
Substitutions are numbered along the chain they refer to. In names and notes the source's numbering stands.

B1: CsDFRb1 (Camellia sinensis; C126T) (protein)
chain: MEVVEVKNGYGGGGGTTVCVTGASGFIGSWLVMRLLQRGYYVRATVRDPDNTDKVKHLLDLPNATTHLSLWKADLDEDGSFDDAIQGCHGVFHVATPMNFVFVMDPENEYIKPTVDGVLNVMRSCTKAKTVKRIIYTSTMATIEYQQKPPSQYDESIWTDVDFCRARKMFAWMYLVAKTEAEKAAWKFAEDNGPDLITVHPCSVIGPFITPYKPPCTSMALALITKNKAFYPMLTQGHAVHVDDVCNAHIYLFEHPQAKGRYICSSHSFTILDLASSLSKKYPEYNIQTKFEDIDESLKPIPCPSKKLLDLGFKFKYNSDECDAGDLCAEAIEACKEKGQMPSL
notes: only point mutants active
B2: CsDFRb1 (Camellia sinensis; N120S) (protein)
chain: B1 chain with N120S, T126C
notes: only point mutants active
B3: CsDFRc (Camellia sinensis) (protein)
chain: MEDTKSKLQEGSAVESLTTTTYCVTGATGYIGSWLVKSLLQRGYRVHATVRNQAKTLHLLPLWGGGDRLRVFRADLHKEGSFNEAVQGCSGVFHVAASMEFEVPAKEDIDSYVRANVIEPAINGTLNLLKSCLKTPSVRRVVFTSSISTMTAKDSAGKWRSVVDESCQNPIDRVWKTKTGAWVYVLSKLLTEEAAFQFANENSIDLVSVITTTVAGPFLTSTVPTSVQVLLSPITGDSKFSRILSAVNSRMGSIALVHIEDICSAHIFLMEHDGAEGRYICSAHSSVISQLVDHLAKEHPFSNMQRLVEEEHGSVPSEISSKKLRDLGFNFKFGLEDIIHHTVSSCVDCGFLCPTVN
B4: CsDFRa (Camellia sinensis) (protein)
chain: MKDSVASATASAPGTVCVTGAAGFIGSWLVMRLLERGYIVRATVRDPANLKKVKHLLDLPKADTNLTLWKADLNEEGSFDEAIEGCSGVFHVATPMDFESKDPENEVIKPTINGVLSIIRSCTKAKTVKRLVFTSSAGTVNVQEHQQPVFDENNWSDLDFINKKKMTGWMYFVSKTLAEKAAWEAAKENNIDFISIIPTLVVGPFIMPTFPPSLITALSPITRNEGHYSIIKQGQFVHLDDLCESHIFLYERPQAEGRYICSSHDATIHDLAKLMREKWPEYNVPTEFKGIDKDLPVVSFSSKKLIGMGFEFKYSLEDMFRGAIDTCREKGLLPHSFAENPVNGNKV

substrate: O=C1c2c(O)cc(O)cc2O[C@H](c2cc(O)c(O)c(O)c2)[C@H]1O; experiment: purified protein; assay type: biochemical, Camellia sinensis; conditions: apparent Km, NADPH, 0.1 M potassium phosphate pH 7.0, 30 °C

| Protein | Km [µM] |
| --- | --- |
| B1 | 47.75 |
| B2 | 96.58 |
| B3 | 105.56 |
| B4 | 58.44 |

substrate: O=C1c2c(O)cc(O)cc2O[C@H](c2ccc(O)cc2)[C@H]1O; experiment: purified protein; assay type: biochemical, Camellia sinensis; conditions: apparent Km, NADPH, 0.1 M potassium phosphate pH 7.0, 30 °C

| Protein | Km [µM] |
| --- | --- |
| B1 | 131.09 |
| B2 | 148.96 |
| B3 | 42.31 |
| B4 | 145.10 |

substrate: O=C1c2c(O)cc(O)cc2O[C@H](c2ccc(O)c(O)c2)[C@H]1O; experiment: purified protein; assay type: biochemical, Camellia sinensis; conditions: apparent Km, NADPH, 0.1 M potassium phosphate pH 7.0, 30 °C

| Protein | Km [µM] |
| --- | --- |
| B1 | 102.57 |
| B2 | 108.66 |
| B3 | 81.80 |
| B4 | 41.80 |
